Assays:
[1] = biological target: T1, mAb 2H12; test: ELISA, purified DIII
T1 construct: also called prototypic AB-loop mAb 2H12

[2] = biological target: murine mAb 4E11; test: ELISA, purified DIII
[3] = biological target: murine mAb 4E11; test: phage ELISA, phage-displayed DIII titrated on immobilized 4E11; design: unit not given here
[4] = biological target: T1, mAb 2H12; test: ELISA
[5] = biological target: murine mAb 4E11; test: ELISA
[6] = biological target: T2, mAb 3H5-1; test: ELISA
T2 construct: also called prototypic FG-loop mAb 3H5-1

[7] = biological target: T1, mAb 2H12; test: biolayer interferometry
[8] = biological target: murine mAb 4E11; test: biolayer interferometry

B1: WT DENV2 EDIII (other)
chain: GMSYSMCTGKFKIVKEIAETQHGTIVIRVQYEGDGSPCKIPFEIMDLEKRHVLGRLITVNPIVTEKDSPVNIEAEPPFGDSYIIIGVEPGQLKLNWFKKGSSIGQ
notes: also called WT DENV2 DIII; DENV2 EDIII WT
EC50 [1]: 0.00032 µM
EC50 [2]: 0.0024 µM
EC50 (read off the curve) [3]: ~5e+08
EC50 [4]: 0.0003 µM
EC50 [5]: 0.002 µM
EC50 [6]: ~2000 µM
Kd [7]: 0.03 nM
Kd [8]: ~4 pM

Reference: patent publication US20180360946A1 (ALBERT EINSTEIN COLLEGE OF MEDICINE, published 2018)
